The term EC50 denotes the concentration giving half of the maximal effect. By Kd is commonly meant the constant that tells how readily two partners part at equilibrium. Usually koff stands for the first-order rate constant of dissociation. A word on the kon: it is a measure of how fast the partners come together.

Test [1] deals with T1, B7-H3, native protein on the cell surface of A498 and SK-MES-1 cells (UniProt Q5ZPR3 29-534, limits assumed).
T1 construct: whole, on cells; The cell line is named under assay for each row
T1 sequence (looked up): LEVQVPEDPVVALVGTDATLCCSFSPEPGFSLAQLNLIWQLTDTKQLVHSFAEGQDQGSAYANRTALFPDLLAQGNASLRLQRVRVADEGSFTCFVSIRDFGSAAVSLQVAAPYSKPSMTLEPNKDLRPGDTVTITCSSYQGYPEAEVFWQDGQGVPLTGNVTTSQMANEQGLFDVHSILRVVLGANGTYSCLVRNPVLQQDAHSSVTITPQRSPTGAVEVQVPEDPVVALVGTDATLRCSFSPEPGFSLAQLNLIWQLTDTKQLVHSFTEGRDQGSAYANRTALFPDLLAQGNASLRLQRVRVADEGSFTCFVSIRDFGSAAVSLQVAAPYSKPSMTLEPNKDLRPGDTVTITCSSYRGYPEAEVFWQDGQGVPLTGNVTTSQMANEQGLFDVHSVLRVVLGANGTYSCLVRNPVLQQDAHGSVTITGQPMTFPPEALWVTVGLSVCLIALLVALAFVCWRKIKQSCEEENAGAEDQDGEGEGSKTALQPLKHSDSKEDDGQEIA
As to the kind of experiment: flow cytometry (FACS) on A498 cells. The protocol: (§1) The recombinantly expressed antibodies were used to assess binding activity to B7-H3 by conventional ELISA according to the known art. Recombinant human B7-H3 and cyno B7-H3 were coated onto ELISA plates to detect binding at serially diluted concentrations of the anti-B7-H3 antibody preparations. The binding affinity of select anti-B7-H3 antibodies were measured on a surface plasmon resonance (SPR) instrument, such as a Biacore T200™, against human B7-H3 (table 3) and cyno B7-H3 (table 4). Cell lines expressing B7-H3, A498 and SK-MES-1, were used to assess binding by anti-B7-H3 antibodies on the native protein on the cell surface by flow cytometry according to the known art. […] In addition, the antibody-dependent cellular cytotoxicity (ADCC) activity of select anti-B7-H3 antibodies were assessed using an engineered surrogate effector cell line, kit reagents, and a luminometer (Promega, Madison, Wis.) on A498 and SK-MES-1 as target cells in table 2 under the heading “ADCC (reporter) and FIGS. 1C and 1D. Finally, specificity of each of the antibodies examined thus far were assessed by interacting with proteins from the B7 family (human B7-1, B7-2, PD-L2, PD-L1, B7-H2, B7-H4, B7-H5, B7-H6, B7-H7) against B7-H3 using ELISA. The data were plotted for each antibody on FIGS. 3A through 3E.
In general terms: A flow cytometer gives signals particle by particle.

Test [2] has as its target Recombinant cyno B7-H3 (cyno). As to the kind of experiment: ELISA, cyno B7-H3 coated on plate. The protocol:
as §1
A general note: ELISA stands for enzyme-linked immunosorbent assay.

Test [3] addresses Recombinant cyno B7-H3 (cyno). As to the kind of experiment: SPR (such as Biacore T200), against cyno B7-H3. As to the method:
as §1
For orientation: SPR reads the build-up and loss of mass on a sensor chip optically.

For test [4], the target named is T2, Recombinant human B7-H3 (human, UniProt Q5ZPR3 29-466, limits assumed).
T2 construct: also called CD276; B7RP-2
T2 sequence: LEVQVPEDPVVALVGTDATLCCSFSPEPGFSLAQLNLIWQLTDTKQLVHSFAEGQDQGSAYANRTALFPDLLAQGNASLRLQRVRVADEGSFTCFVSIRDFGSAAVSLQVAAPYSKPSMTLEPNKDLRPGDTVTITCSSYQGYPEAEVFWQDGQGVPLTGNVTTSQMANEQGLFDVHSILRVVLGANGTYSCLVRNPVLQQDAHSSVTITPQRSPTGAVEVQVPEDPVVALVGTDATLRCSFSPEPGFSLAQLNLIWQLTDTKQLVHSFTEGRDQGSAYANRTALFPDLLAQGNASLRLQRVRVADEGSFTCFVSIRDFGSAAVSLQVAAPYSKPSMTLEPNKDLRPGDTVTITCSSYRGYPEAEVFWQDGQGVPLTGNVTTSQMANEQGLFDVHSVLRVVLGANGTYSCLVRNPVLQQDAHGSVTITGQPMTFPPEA
Kind of test: SPR (such as Biacore T200), against human B7-H3. The protocol: as §1

Test [5] deals with T1, B7-H3, native protein on the cell …. Kind of test: flow cytometry (FACS) on SK-MES-1 cells. The protocol: as §1
The target of test [6] is T2, Recombinant human B7-H3. As to the kind of experiment: ELISA, recombinant human B7-H3 coated on plate. The protocol: as §1
For test [7], the target named is T1, B7-H3, native protein on the cell …. Kind of test: cell-based or functional assay.

B1: SCT-Da192 (antibody, V domains shown)
VH: EVQLQQSGPELVKPGASVKISCKTSGYTFTEYTMHWVKQSHGKSLEWIGVINPNNGGTTYNQKFKGKATLTVDKSSSTAYMELRSLTSEDSAVYYCARPHSLLRLRREFDYWGQGTTLTVSS
VL: QIVLTQSPALMSASPGEKVTMTCSASSSVSYMYWYQQKPRSSPKPWIYLTSNLASGVPARFSGSGSGTSYSLTISSMEAEDAATYYCQQWSSNPLTFGAGTKLELK
With B1, the EC50 in test [1] came out at 2.62 nM; in test [2], 0.0176 nM; in test [5], 2.32 nM; in test [6], 0.0109 nM. The Kd was determined as 1.64 nM in test [3] and 23.8 nM in test [4]. For the same molecule, the figures for the koff in test [3] and in test [4] were 0.000505 s⁻¹ and 0.00203 s⁻¹, respectively. Besides, the kon in test [3] is 307000 M⁻¹ s⁻¹; in test [4], 85100 M⁻¹ s⁻¹. In addition, in test [7], the “ADCC (reporter) EC50, A498 target cells” value amounted to 1.1 nM. For the same molecule, the “ADCC (reporter) EC50, SK-MES-1 target cells” value (“ADCC … SK-MES-1 target cells” for short) in test [7] worked out at 0.9 nM.

B2: SCT-Da333 (antibody, V domains shown)
VH: QVQLQQSGPELVRPGVSVKISCKGSGYTFTDYAVHWVKQSHAKSLEWIGVINTYSGNTYYNLHFKGKATMTVDKSSSTAYMELARLTSEDSAIYYCARRRGSHRDAYFDYWGQGTTLTVSS
VL: DIVMTQSHKFMSTSVGDRVSITCRASQDVSTAVAWYQQKPGQSPKLLIYSASYRYTGVPDRFTVSGSGTDFTFTISSVQAEDLAVYYCQQHYSTPWTFGGGTKLEIK
The molecule B2 returned an EC50 in test [1] of 3.29 nM. In addition, in test [2], the EC50 came to 3.05 nM. Besides, in test [4], the Kd amounted to 380 nM, the koff worked out at 0.0512 s⁻¹ and the kon is 135000 M⁻¹ s⁻¹. Also, the EC50 in test [5] came to 1.94 nM. In addition, the EC50 in test [6] came out at 0.00833 nM. Further, in test [7], the “ADCC (reporter) EC50, A498 target cells” value is 23.3 nM and the “ADCC … SK-MES-1 target cells” value came to 32.8 nM.

B3: SCT-Da250 (antibody, V domains shown)
VH: QGQMQQSGAELVKPGASVRLSCKTSGFTFSSFYISWLKQKPGQSLEWIAWIYAGPGYTSYNQKFTGKAQLTVDTSSSTAYMQFSSLTTEDSAIYYCARHVGRQRGYFDVWGAGTTVTVSS
VL: DIVMTQSHKFMSTSVGDRVSITCKASQDVSTAVAWYQQKPGQSPKLLIYSASYRYTGVPDHFTVSGSGTDFTFTISSVQAEDLAVYYCQQHYSTPWTFGGGTKLEIK
Take B3: the EC50 in test [1] was determined as 1.43 nM; in test [2] it was 0.0237 nM; in test [5] it was 1.46 nM; in test [6], 0.0226 nM. For the same molecule, the Kd in test [3] was 0.398 nM; in test [4], 2.75 nM. For the same molecule, the figures for the koff in test [3] and in test [4] were 0.000361 s⁻¹ and 0.0011 s⁻¹, respectively. Moreover, the kon in test [3] was 905000 M⁻¹ s⁻¹; in test [4], 402000 M⁻¹ s⁻¹. Also, in test [7], the “ADCC (reporter) EC50, A498 target cells” value amounted to 2.4 nM. Also, the “ADCC … SK-MES-1 target cells” value in test [7] worked out at 2.4 nM.

B4: SCT-Da182 (antibody, V domains shown)
VH: EVQLQQSGPELVKPGASMKISCKVSGFSFTGYTMNWVKQSHGKNLEWIGLINTYNGGTFYNQKFKAKATLTVDKSSSTAHMELLSLTSEDSAVYYCARSPGRYSMDYWGQGTSVTVSS
VL: DIVLTQSPASLAVSLGQRATISCKASQSVDYNGYSYLNWYQQKPGQPPKLLIYPASNLESGIPARFSGSGSGTDFTLNIHPVEEEDAATYYCQQSKEDPYTFGGGTKLEIK
B4: the EC50 in test [1] was 3.7 nM; in test [2] it was 0.00882 nM; in test [5], 4.09 nM; in test [6] it was 0.0105 nM. For the same molecule, the Kd in test [3] amounted to 1.22 nM; in test [4], 10.9 nM. Moreover, the koff in test [3] turned out to be 0.000283 s⁻¹; in test [4], 0.00101 s⁻¹. Besides, the kon in test [3] was found to be 232000 M⁻¹ s⁻¹; in test [4], 92700 M⁻¹ s⁻¹. In addition, the “ADCC (reporter) EC50, A498 target cells” value in test [7] came out at 4.5 nM. The “ADCC … SK-MES-1 target cells” value in test [7] came out at 4.6 nM.

B5: SCT-Da148 (antibody, V domains shown)
VH: EVQLQQSGAELVKPGASVKLSCTASGVNIKDTYIHWVKQRPEQGLEWIGRIDPANGNRKYDPKFQGKATITADSSSNTAYLQLSSLTSEDTAVYYCARDGYYAPGYWGQGTTLTVSS
VL: DIVMTQSQKFMSTSVGDRVSVTCKASQNVGTDVAWYQQKPGQSPKLLIYSASYRFSGVPDRFTGSGSGTDFSLAISNVQSEDLAEYFCQQYNSYPYTFGGGAKLEIK
Take B5: the EC50 was 1.6 nM in test [1], 0.0114 nM in test [2], 1.49 nM in test [5] and 0.0076 nM in test [6]. The Kd is 0.503 nM in test [3] and 6.41 nM in test [4]. The koff came to 0.000368 s⁻¹ in test [3] and 0.00234 s⁻¹ in test [4]. Moreover, the kon in test [3] is 731000 M⁻¹ s⁻¹; in test [4] it was 366000 M⁻¹ s⁻¹. In addition, the “ADCC (reporter) EC50, A498 target cells” value in test [7] was 3.6 nM. The “ADCC … SK-MES-1 target cells” value in test [7] came to 4.2 nM.

These data come from US20220235134A1 (SINGLE CELL TECHNOLOGY, published 2022).
